Key:
[1] = MTT and crystal violet cell viability assays; type: cell-based; settings: human, PC-3 cells, MTT and crystal violet assays, up to 72 h observation, read-out: IC50 (cytotoxicity)
Protocol: (§1) Subsequently, cells were washed three times with PBS, and 3-(4,5-dimethylthiazol-2-yl)-2,5- diphenyltetrazolium bromide (MTT) was added (0.5 mg/mL in serum-free medium (SFM)), followed by a 2 h incubation. After aspiration to remove the serum-free medium, 100 μL of DMSO was added to solubilize the precipitated formazan species, and 96-well plates were read by an ELISA plate reader, Molecular Devices Versa Max (BN02877). The absorption wavelength was 570 nm, and a 690 nm wavelength was used as a reference.

[2] = tested on: cancerous cell lines (PC-3); assay: MTT and crystal violet cell viability assays; type: cell-based; settings: at concentrations used for imaging, over 72 h of observations
Protocol: as §1

[3] = Two-photon TCSPC point decays in solution (aggregation behaviour); type: physicochemical; settings: for a1 (amplitude of τ1) / a2 (amplitude of τ2) / τ2 (long-lifetime component) / τ1 (short-lifetime component): two-photon TCSPC 910 nm
Description: Prior to the cellular studies by FLIM, lifetime distribution decays of probes 3 (both enantiomers), 4 (both enantiomers), and L -6 were studied by TCSPC in different concentrations and solvent systems. […] The main fluorescence lifetime parameters obtained by TCSPC in the solution phase are summarized in Table , and further details are given in Figures S105–S133 and Tables S2–S4. The goodness of fit of the data points obtained is represented by the Chi–square parameter, χ^2; τ1 is the short-lifetime component; τ2 is the long-lifetime component; and the parameters a1 and a2 represent the amplitude of the components.

PC-3 cells = settings: 48 h
Protocol: After splitting the cells, cells (3 × 10^3 cells per well) were seeded on a sterile 96-well plate and incubated for 48 h to let the cells adhere to the plates. The compound of interest was subsequently loaded at different concentrations into the wells and incubated for a further 48 h. The concentrations used ranged between 250 μM or 0.01 mg/mL and 1 nM or 1 ng/mL (1% DMSO with compound, 99% RPMI (10% FCS) for PC-3. Subsequently, the medium from the plates was carefully aspirated so as not to disturb the colonies, and the plates were gently washed with PBS. Next, a mixture of methanol/PBS (1:1) was added in a sufficient volume to cover the colonies, and it was left for 15 min. After this time, it was removed, and 100% methanol was added for a further 15 min. The methanol was then removed, and 0.5% crystal violet solution (in 20% methanol and 80% water) was added and left to allow sufficient staining. The crystal violet solution was removed by carefully rinsing the cell plates with an indirect flow of tap water. The plates were inverted and left on the bench at room temperature to dry the water. Methanol (200 μL) was added to each well, and the plate was incubated with its lid on for 20 min at room temperature on a bench rocker with a frequency of 20 oscillations per minute. The 96-well plates were then read with an ELISA plate reader, Molecular Devices Versa Max (BN02877). […]

[4] = FE-SEM and Airyscan confocal imaging of dried films (aggregation morphology); type: physicochemical; settings: dried powder or freeze-dried 1 mg/mL MeCN/H2O (1:1) or DMSO solutions
Protocol: To further investigate the aggregation behavior, we examined the surface morphologies of the isolated conjugates in the solid state at the micrometer scale using field emission scanning electron microscopy (FE-SEM). This analysis aimed to determine whether the aggregation properties of these peptide-based compounds influence their fluorescence emission. The FE SEM micrographs of the D- and L-enantiomers of 3 and 4 were recorded from dried powder after purification or after freeze-drying of 1 mg/mL solutions deposited in either MeCN/H2O (1:1) or DMSO solutions. […] Confocal laser scanning fluorescence microscopy was performed for the thin films deposited on glass-bottomed borosilicate slides using imaging Petri dishes. Micrographs were acquired using Airyscan detection for L -3 (a1–e1), L -4 (a2–e2), D -3 (a3–e3), D -4 (a4–d4), and L -6 (a5–d5) where these images were recorded following overnight freeze-drying of films deposited from DMSO (Figures and S67). […] This is consistent with our observations from solution excitation–emission maps (Figures and S57–S63) and further points to the overall ability of these aggregates to show fluorescence emission due to possible stacking and excited-state electron and energy dynamics. […] Specifically, emission was detected in the blue (λem = 420–480 nm), green (λem = 495–550 nm), and red (λem = 555–620 nm) channels. […]

[5] = target: T1, GRP receptors in PC-3 cells (Homo sapiens, UniProt P30550); assay: Blocking experiment with L-[7–13]BBN, confocal imaging; type: cell-based; settings: PC-3 pre-incubated with 1 mM L-[7–13]BBN, 37 °C, 20 min, washed, then conjugate 20 min
T1 construct: This also supports the targeted uptake directed by the GRP receptors in PC-3 cells; endogenous in cells; host or cells: PC-3 cells (ATCC)
Protocol: Compound L -6 emits in the green and red channels (500–550 and 570–750 nm, respectively) when excited at 488 nm. […] In addition, the fluorescence emissions in vitro are stronger than the observed fluorescence emission in solution. […] This also supports the targeted uptake directed by the GRP receptors in PC-3 cells interplayed with BODIPY-driven cellular localization. To further probe this observation, a blocking experiment by confocal imaging was conducted (Figures S103–S104), whereby PC-3 cells were first incubated in the presence of a high concentration of L-[7–13]-BBN (1 mM) at 37 °C for 20 min. This peptide is only weakly fluorescent, and on this time scale (and up to 18 h of incubation time), confocal imaging cannot show distinguishable emission, to describe the uptake for L-[7,13]-BBN alone by this method (Figure S87). After the standard 20 min pretreatment time, the cells were washed with PBS and then the serum-free medium (SFM) was replaced. […] In the case of L-6, the observed maximum fluorescence intensity is distributed over the exterior of the cell, with points of aggregation visible around the membrane. […]
Figure S103. […] (D) A comparison of the mean fluorescence intensity estimated from confocal imaging experiments of the standard blocking assays in living PC-3 cells (Figure S103), under 20 min incubation, 37 °C, ex 488 nm. […]

[6] = DMSO, 0.01 mM, double-exponential fit, aggregation indicator

T1 sequence (P30550 whole entry): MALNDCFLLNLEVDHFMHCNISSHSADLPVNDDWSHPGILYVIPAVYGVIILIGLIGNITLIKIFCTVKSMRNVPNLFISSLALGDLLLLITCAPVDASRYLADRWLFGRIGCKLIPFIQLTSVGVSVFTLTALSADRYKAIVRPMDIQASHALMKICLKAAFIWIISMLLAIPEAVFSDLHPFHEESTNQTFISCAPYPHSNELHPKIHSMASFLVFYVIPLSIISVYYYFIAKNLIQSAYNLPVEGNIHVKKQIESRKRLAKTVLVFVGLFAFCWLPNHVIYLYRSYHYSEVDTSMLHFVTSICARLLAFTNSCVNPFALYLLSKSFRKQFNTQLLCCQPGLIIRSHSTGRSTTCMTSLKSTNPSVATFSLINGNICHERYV

SMILES | IC50 at 48 h [1] [µM] | cytotoxicity in words [2] | a1 (amplitude of τ1) ([3]; DMSO, 0.01 mM) [%] | a2 (amplitude of τ2) ([3]; DMSO, 0.01 mM) [%] | τ2 (long-lifetime component) ([3]; DMSO, 0.01 mM) [ns] | τ1 (short-lifetime component) [3, 6] [ns] | a1 (amplitude of τ1) ([3]; DMSO, 0.1 mM) [%] | a2 (amplitude of τ2) ([3]; DMSO, 0.1 mM) [%] | τ1 (short-lifetime component) ([3]; DMSO, 0.1 mM) [ns] | a1 (amplitude of τ1) ([3]; DMSO, 1 mM) [%] | a2 (amplitude of τ2) ([3]; DMSO, 1 mM) [%] | τ1 (short-lifetime component) ([3]; DMSO, 1 mM) [ns] | τ2 (long-lifetime component) ([3]; DMSO, 1 mM) [ns] | a1 (amplitude of τ1) ([3]; DMSO/H2O (1:1), 0.025 mM) [%] | a2 (amplitude of τ2) ([3]; DMSO/H2O (1:1), 0.025 mM) [%] | τ1 (short-lifetime component) ([3]; DMSO/H2O (1:1), 0.025 mM) [ns] | a1 (amplitude of τ1) ([3]; DMSO/H2O (1:1), 2.5 mM) [%] | a2 (amplitude of τ2) ([3]; DMSO/H2O (1:1), 2.5 mM) [%] | τ1 (short-lifetime component) ([3]; DMSO/H2O (1:1), 2.5 mM) [ns] | τ2 (long-lifetime component) ([3]; DMSO/H2O (1:1), 2.5 mM) [ns] | further results
CC(C)C[C@H](NC(=O)[C@H](Cc1c[nH]cn1)NC(=O)CNC(=O)[C@@H](NC(=O)[C@H](C)NC(=O)[C@H](Cc1c[nH]c2ccccc12)NC(=O)[C@H](CCC(N)=O)NC(=O)[C@H](Cc1ccc(I)cc1)N1C(=O)c2ccc3c4c(ccc(c24)C1=O)C(=O)N([C@@H](Cc1ccc(I)cc1)C(=O)ON1C(=O)CCC1=O)C3=O)C(C)C)C(N)=O [L-3] | > 100 | nontoxic | 62 | 38 | 7.35 | 0.84 | 62 | 38 | 0.57 | 63 | 37 | 0.38 | 2.54 | 82 | 18 | 0.37 | 77 | 23 | 0.31 | 3.45 | τ2 (long-lifetime component) ([3]; DMSO/H2O (1:1), 0.025 mM): 10.01 ns; a1 (amplitude of τ1) ([3]; DMSO/H2O (1:1), 0.25 mM): 81%; a2 (amplitude of τ2) ([3]; DMSO/H2O (1:1), 0.25 mM): 19%; τ1 (short-lifetime component) ([3]; DMSO/H2O (1:1), 0.25 mM): 0.38 ns; τ2 (long-lifetime component) ([3]; DMSO/H2O (1:1), 0.25 mM): 9.87 ns; IC50 (PC-3 cells): > 100 µM
CC(C)C[C@H](NC(=O)[C@H](Cc1c[nH]cn1)NC(=O)CNC(=O)[C@@H](NC(=O)[C@H](C)NC(=O)[C@H](Cc1c[nH]c2ccccc12)NC(=O)[C@H](CCC(N)=O)NC(=O)[C@H](Cc1ccc(I)cc1)N1C(=O)c2ccc3c4c(ccc(c24)C1=O)C(=O)N([C@@H](Cc1ccc(I)cc1)C(=O)N[C@@H](CCC(N)=O)C(=O)N[C@@H](Cc1c[nH]c2ccccc12)C(=O)N[C@@H](C)C(=O)N[C@H](C(=O)NCC(=O)N[C@@H](Cc1c[nH]cn1)C(=O)N[C@@H](CC(C)C)C(N)=O)C(C)C)C3=O)C(C)C)C(N)=O [L-4] | > 100 | nontoxic | 75 | 25 | 4.76 | 0.51 | 79 | 21 | 0.49 | 77 | 23 | 0.48 | 4.29 | 84 | 16 | 0.48 | 86 | 14 | 0.26 | 4.97 | τ2 (long-lifetime component) ([3]; DMSO, 0.1 mM): 5.45 ns; τ2 (long-lifetime component) ([3]; DMSO/H2O (1:1), 0.025 mM): 9.57 ns; a1 (amplitude of τ1) ([3]; DMSO/H2O (1:1), 0.25 mM): 83%; a2 (amplitude of τ2) ([3]; DMSO/H2O (1:1), 0.25 mM): 17%; τ1 (short-lifetime component) ([3]; DMSO/H2O (1:1), 0.25 mM): 0.40 ns; τ2 (long-lifetime component) ([3]; DMSO/H2O (1:1), 0.25 mM): 3.12 ns; aggregate morphology [4]: granular and globular morphology; IC50 (PC-3 cells): > 100 µM
CC1=CC(C)=[N+]2C1=C(c1ccc(C(=O)NCCN3C(=O)c4ccc5c6c(ccc(c46)C3=O)C(=O)N([C@@H](CCC(N)=O)C(=O)N[C@@H](Cc3c[nH]c4ccccc34)C(=O)N[C@@H](C)C(=O)N[C@H](C(=O)NCC(=O)N[C@@H](Cc3c[nH]cn3)C(=O)N[C@@H](CC(C)C)C(N)=O)C(C)C)C5=O)cc1)c1c(C)cc(C)n1[B-]2(F)F [L-6] | > 100 | nontoxic | 68 | 32 | 3.34 | 0.14 | 80 | 20 | 0.14 | 66 | 34 | 0.14 | 1.67 |  |  |  | 65 | 35 | 0.15 | 2.25 | uptake after pre-blocking with L-[7–13]BBN [5]: significant decrease of the uptake efficiency in pretreated cells; uptake after pre-blocking with L-[7–13]BBN ([5]; listed as L -6): significantly lesser extent than in the nonblocked experiment; τ2 (long-lifetime component) ([3]; DMSO, 0.1 mM): 2.64 ns; τ1 relative to BODIPY-linker precursor 5 ([3]; TCSPC in solution, assigned to self-aggregation): 10 fold lower; τ1 (approximate) ([3]; both DMSO and DMSO/H2O solutions, TCSPC): ~0.1 ns

Reference: PMC12715529, “Functional D- and L‑Naphthalenediimide-Peptides: Microwave-Driven Synthesis, Supramolecular Aggregation, and Multiphoton Fluorescence Lifetime Imaging Microscopy in Living Cells” (ACS Bio & Med Chem Au, 2025)
